# In patent US20170266254A1 (AILERON THERAPEUTICS, published 2017):
# Bridges are numbered along the chain shown (N, C = ends). [ ]: non-standard residue; d: D form. R8 = C=CCCCCCC[C@@](C)(N)C(=O)O; S5 = C=CCCC[C@](C)(N)C(=O)O
# T1: C-terminally 6x Histidine-tagged Beta-Catenin (aa 134-668, 59 KD) (UniProt P35222 134-668)
# T1 construct: range 134-668; Armadillo repeat region
# T1 sequence: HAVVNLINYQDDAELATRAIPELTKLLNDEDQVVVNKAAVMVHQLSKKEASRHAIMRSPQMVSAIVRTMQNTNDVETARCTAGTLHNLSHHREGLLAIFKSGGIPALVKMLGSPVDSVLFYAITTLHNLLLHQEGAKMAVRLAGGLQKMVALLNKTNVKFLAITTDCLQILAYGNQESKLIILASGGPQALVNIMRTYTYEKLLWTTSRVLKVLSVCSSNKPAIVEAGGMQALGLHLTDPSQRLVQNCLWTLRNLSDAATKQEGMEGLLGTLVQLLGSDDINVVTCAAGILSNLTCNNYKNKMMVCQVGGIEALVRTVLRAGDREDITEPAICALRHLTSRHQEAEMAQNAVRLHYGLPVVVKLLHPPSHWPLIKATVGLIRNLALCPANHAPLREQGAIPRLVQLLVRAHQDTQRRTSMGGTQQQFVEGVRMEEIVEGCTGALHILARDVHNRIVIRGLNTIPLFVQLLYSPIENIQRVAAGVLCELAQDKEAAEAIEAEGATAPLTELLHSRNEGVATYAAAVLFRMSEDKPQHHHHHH
# B1: SP56 (peptide)
# peptide: Ac-RDLA[S5]VVS[S5]LVNES-NH2
# modifications: staple 5-9
# SMILES: CC(=O)N[C@@H](CCCNC(=N)N)C(=O)N[C@@H](CC(=O)O)C(=O)N[C@@H](CC(C)C)C(=O)N[C@@H](C)C(=O)N[C@@]1(C)CCCC=CCCC[C@@](C)(C(=O)N[C@@H](CC(C)C)C(=O)N[C@H](C(=O)N[C@@H](CC(N)=O)C(=O)N[C@@H](CCC(=O)O)C(=O)N[C@@H](CO)C(N)=O)C(C)C)NC(=O)[C@H](CO)NC(=O)[C@H](C(C)C)NC(=O)[C@H](C(C)C)NC1=O
# notes: also called Ac-RDLA$VVS$LVNES-NH2
# B2: SP5 (peptide)
# peptide: Ac-RNLADVKS[S5]LVN[S5]S-NH2
# modifications: staple 9-13
# SMILES: CC(=O)N[C@@H](CCCNC(=N)N)C(=O)N[C@@H](CC(N)=O)C(=O)N[C@@H](CC(C)C)C(=O)N[C@@H](C)C(=O)N[C@@H](CC(=O)O)C(=O)N[C@H](C(=O)N[C@@H](CCCCN)C(=O)N[C@@H](CO)C(=O)N[C@@]1(C)CCCC=CCCC[C@@](C)(C(=O)N[C@@H](CO)C(N)=O)NC(=O)[C@H](CC(N)=O)NC(=O)[C@H](C(C)C)NC(=O)[C@H](CC(C)C)NC1=O)C(C)C
# B3: SP6 (peptide)
# peptide: Ac-RDLA[S5]VKS[S5]LVNQS-NH2
# modifications: staple 5-9
# SMILES: CC(=O)N[C@@H](CCCNC(=N)N)C(=O)N[C@@H](CC(=O)O)C(=O)N[C@@H](CC(C)C)C(=O)N[C@@H](C)C(=O)N[C@@]1(C)CCCC=CCCC[C@@](C)(C(=O)N[C@@H](CC(C)C)C(=O)N[C@H](C(=O)N[C@@H](CC(N)=O)C(=O)N[C@@H](CCC(N)=O)C(=O)N[C@@H](CO)C(N)=O)C(C)C)NC(=O)[C@H](CO)NC(=O)[C@H](CCCCN)NC(=O)[C@H](C(C)C)NC1=O
# notes: also called Ac-RDLA$VKS$LVNQS-NH2
# B4: SP51 (peptide)
# peptide: LGANDELISFADEGAQEEKSS
# chain: AARDLANVKSSLV
# modifications: not fully specified; N-terminal acetyl; C-terminal amide; PEG4 = NH-(PEG)4-COOH (19 atoms) linker between the two peptide parts; $ = (S)-alpha-(2'-pentenyl)alanine at positions 11 and 15 of the first part and at positions 2 and 6 of the second part, each pair joined by an all-carbon crosslinker with one double bond
# notes: The two peptide parts are joined by a non-peptide PEG4 spacer, not by a peptide bond
# B5: SP43 (peptide)
# peptide: Ac-SA[S5]RDL[S5]NVKSSLV-NH2
# modifications: staple 3-7
# SMILES: CC(=O)N[C@@H](CO)C(=O)N[C@@H](C)C(=O)N[C@@]1(C)CCCC=CCCC[C@@](C)(C(=O)N[C@@H](CC(N)=O)C(=O)N[C@H](C(=O)N[C@@H](CCCCN)C(=O)N[C@@H](CO)C(=O)N[C@@H](CO)C(=O)N[C@@H](CC(C)C)C(=O)N[C@H](C(N)=O)C(C)C)C(C)C)NC(=O)[C@H](CC(C)C)NC(=O)[C@H](CC(=O)O)NC(=O)[C@H](CCCNC(=N)N)NC1=O
# notes: also called Ac-SA$RDL$NVKSSLV-NH2
# B6: SP50 (peptide)
# peptide: LGANDELISFADEGAQEEKSS
# chain: AARDLANVKSSLV
# modifications: not fully specified; N-terminal acetyl; C-terminal amide; PEG3 = NH-(PEG)3-COOH (16 atoms) linker between the two peptide parts; $ = (S)-alpha-(2'-pentenyl)alanine at positions 11 and 15 of the first part and at positions 2 and 6 of the second part, each pair joined by an all-carbon crosslinker with one double bond
# notes: The two peptide parts are joined by a non-peptide PEG3 spacer, not by a peptide bond
# B7: SP54 (peptide)
# peptide: Ac-SA[S5]RDL[S5]NVKSSLV-NH2
# modifications: staple 3-7
# SMILES: CC(=O)N[C@@H](CO)C(=O)N[C@@H](C)C(=O)N[C@@]1(C)CCCC=CCCC[C@@](C)(C(=O)N[C@@H](CC(N)=O)C(=O)N[C@H](C(=O)N[C@@H](CCCCN)C(=O)N[C@@H](CO)C(=O)N[C@@H](CO)C(=O)N[C@@H](CC(C)C)C(=O)N[C@H](C(N)=O)C(C)C)C(C)C)NC(=O)[C@H](CC(C)C)NC(=O)[C@H](CC(=O)O)NC(=O)[C@H](CCCNC(=N)N)NC1=O
# notes: as for B5
# B8: SP42 (peptide)
# peptide: Ac-SA[S5]RNL[S5]DVKSSLV-NH2
# modifications: staple 3-7
# SMILES: CC(=O)N[C@@H](CO)C(=O)N[C@@H](C)C(=O)N[C@@]1(C)CCCC=CCCC[C@@](C)(C(=O)N[C@@H](CC(=O)O)C(=O)N[C@H](C(=O)N[C@@H](CCCCN)C(=O)N[C@@H](CO)C(=O)N[C@@H](CO)C(=O)N[C@@H](CC(C)C)C(=O)N[C@H](C(N)=O)C(C)C)C(C)C)NC(=O)[C@H](CC(C)C)NC(=O)[C@H](CC(N)=O)NC(=O)[C@H](CCCNC(=N)N)NC1=O
# notes: also called Ac-SA$RNL$DVKSSLV-NH2
# B9: SP1 (peptide)
# peptide: Ac-NL[S5]NVK[S5]SLVNQS-NH2
# modifications: staple 3-7
# SMILES: CC(=O)N[C@@H](CC(N)=O)C(=O)N[C@@H](CC(C)C)C(=O)N[C@@]1(C)CCCC=CCCC[C@@](C)(C(=O)N[C@@H](CO)C(=O)N[C@@H](CC(C)C)C(=O)N[C@H](C(=O)N[C@@H](CC(N)=O)C(=O)N[C@@H](CCC(N)=O)C(=O)N[C@@H](CO)C(N)=O)C(C)C)NC(=O)[C@H](CCCCN)NC(=O)[C@H](C(C)C)NC(=O)[C@H](CC(N)=O)NC1=O
# notes: also called Ac-NL$NVK$SLVNQS-NH2
# B10: SP3 (peptide)
# peptide: Ac-RNLA[S5]VKS[S5]LVNES-NH2
# modifications: staple 5-9
# SMILES: CC(=O)N[C@@H](CCCNC(=N)N)C(=O)N[C@@H](CC(N)=O)C(=O)N[C@@H](CC(C)C)C(=O)N[C@@H](C)C(=O)N[C@@]1(C)CCCC=CCCC[C@@](C)(C(=O)N[C@@H](CC(C)C)C(=O)N[C@H](C(=O)N[C@@H](CC(N)=O)C(=O)N[C@@H](CCC(=O)O)C(=O)N[C@@H](CO)C(N)=O)C(C)C)NC(=O)[C@H](CO)NC(=O)[C@H](CCCCN)NC(=O)[C@H](C(C)C)NC1=O
# notes: also called Ac-RNLA$VKS$LVNES-NH2
# B11: SP7 (peptide)
# peptide: Ac-RDLA[R8]VKSSLV[S5]QS-NH2
# modifications: staple 5-12
# SMILES: CC(=O)N[C@@H](CCCNC(=N)N)C(=O)N[C@@H](CC(=O)O)C(=O)N[C@@H](CC(C)C)C(=O)N[C@@H](C)C(=O)N[C@]1(C)CCCCCCC=CCCC[C@@](C)(C(=O)N[C@@H](CCC(N)=O)C(=O)N[C@@H](CO)C(N)=O)NC(=O)[C@H](C(C)C)NC(=O)[C@H](CC(C)C)NC(=O)[C@H](CO)NC(=O)[C@H](CO)NC(=O)[C@H](CCCCN)NC(=O)[C@H](C(C)C)NC1=O
# notes: also called Ac-RDLA$r8VKSSLV$QS-NH2
# B12: SP8 (peptide)
# peptide: Ac-RDLANVKS[S5]LVN[S5]S-NH2
# modifications: staple 9-13
# SMILES: CC(=O)N[C@@H](CCCNC(=N)N)C(=O)N[C@@H](CC(=O)O)C(=O)N[C@@H](CC(C)C)C(=O)N[C@@H](C)C(=O)N[C@@H](CC(N)=O)C(=O)N[C@H](C(=O)N[C@@H](CCCCN)C(=O)N[C@@H](CO)C(=O)N[C@@]1(C)CCCC=CCCC[C@@](C)(C(=O)N[C@@H](CO)C(N)=O)NC(=O)[C@H](CC(N)=O)NC(=O)[C@H](C(C)C)NC(=O)[C@H](CC(C)C)NC1=O)C(C)C
# B13: SP36 (peptide)
# peptide: Ac-VERGLANVK[S5]SLV[S5]ES-NH2
# modifications: staple 10-14
# SMILES: CC(=O)N[C@H](C(=O)N[C@@H](CCC(=O)O)C(=O)N[C@@H](CCCNC(=N)N)C(=O)NCC(=O)N[C@@H](CC(C)C)C(=O)N[C@@H](C)C(=O)N[C@@H](CC(N)=O)C(=O)N[C@H](C(=O)N[C@@H](CCCCN)C(=O)N[C@@]1(C)CCCC=CCCC[C@@](C)(C(=O)N[C@@H](CCC(=O)O)C(=O)N[C@@H](CO)C(N)=O)NC(=O)[C@H](C(C)C)NC(=O)[C@H](CC(C)C)NC(=O)[C@H](CO)NC1=O)C(C)C)C(C)C
# B14: SP55 (peptide)
# peptide: Ac-SA[S5]RNL[S5]DVKSSLV-NH2
# modifications: staple 3-7
# SMILES: CC(=O)N[C@@H](CO)C(=O)N[C@@H](C)C(=O)N[C@@]1(C)CCCC=CCCC[C@@](C)(C(=O)N[C@@H](CC(=O)O)C(=O)N[C@H](C(=O)N[C@@H](CCCCN)C(=O)N[C@@H](CO)C(=O)N[C@@H](CO)C(=O)N[C@@H](CC(C)C)C(=O)N[C@H](C(N)=O)C(C)C)C(C)C)NC(=O)[C@H](CC(C)C)NC(=O)[C@H](CC(N)=O)NC(=O)[C@H](CCCNC(=N)N)NC1=O
# notes: as for B8
# Target: T1, C-terminally 6x Histidine-tagged …
# Test: competitive fluorescence polarization, FAM-labelled linear probe as competitor, His-tagged beta-catenin 134-668
# How it was run: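 FP competition in 25 mM Tris-HCl pH 7.5, 200 mM NaCl, 5 mM CHAPS, 2 mM DTT at room temperature. Competitor peptides at 40–0.7 μM 2× working range, constant DMSO. Probe (benchmark peptide with N-terminal FAM via β-Ala spacer) from 25 nM 10× stock. Read after 3 h in the dark, ex 485/em 528 nm.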
row,IC50 [µM],Binder
1,≥ 100,B1
2,≥ 100,B2
3,≥ 100,B3
4,0.603,B4
5,≥ 100,B5
6,1.1,B6
7,≥ 100,B7
8,≥ 100,B8
9,≥ 100,B9
10,≥ 100,B10
11,≥ 100,B11
12,≥ 100,B12
13,≥ 100,B13
14,≥ 100,B14
